What was measured:
APJ receptor = target: T1, APJ receptor (Homo sapiens, UniProt P35414); test: APJ receptor binding assay (competitive radioligand binding); settings: negative control
T1 construct: purchased Perkin Elmer, Waltham, Mass; host or cells: transfected CHO cells (membrane fraction)
T1 sequence (P35414 1-380): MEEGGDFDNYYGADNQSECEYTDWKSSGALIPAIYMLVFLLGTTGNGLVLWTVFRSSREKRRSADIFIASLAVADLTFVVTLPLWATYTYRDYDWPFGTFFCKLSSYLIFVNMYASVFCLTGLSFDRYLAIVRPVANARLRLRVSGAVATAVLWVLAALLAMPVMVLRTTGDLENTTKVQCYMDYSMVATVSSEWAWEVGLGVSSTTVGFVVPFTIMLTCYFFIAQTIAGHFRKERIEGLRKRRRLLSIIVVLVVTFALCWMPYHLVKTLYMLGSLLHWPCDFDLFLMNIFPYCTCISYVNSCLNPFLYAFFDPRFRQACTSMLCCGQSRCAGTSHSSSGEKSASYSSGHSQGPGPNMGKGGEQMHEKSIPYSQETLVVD
Method: The binding was performed using competition with ^125I-labelled [Glp^65, Nle^75, Tyr^77]-apelin13 probe for binding to the APJ receptor in a membrane fraction from the transfected CHO cells (Perkin Elmer, Waltham, Mass.). Serially diluted peptide was incubated with membrane and probe for 1 hour at room temperature. The mixture was then filtered over a 1.2 um glass fiber type C filterplate (Millipore Corp., Billerica, Mass.), preblocked with 0.5% polyethylenimine. The plate was washed 4 times with 200 ul ice cold binding buffer and then another 4 times with ice cold 50 mM Tris-HCl, pH7.4, dried and counted with scintillation fluid. The data was analyzed with Graphpad Prism 4 (GraphPad Software, Inc, La Jolla, Calif.) using nonlinear regression.

[1] = target: T2, APJ receptor in a membrane fraction from transfected CHO cells (Perkin Elmer) (UniProt P35414 1-380, limits assumed); test: competitive radioligand binding, 125I-[Glp65, Nle75, Tyr77]-apelin13 probe, APJ membranes from transfected CHO cells
T2 construct: whole, on cells; The receptor stood in a membrane fraction of transfected CHO cells, not on whole cells
T2 sequence (looked up): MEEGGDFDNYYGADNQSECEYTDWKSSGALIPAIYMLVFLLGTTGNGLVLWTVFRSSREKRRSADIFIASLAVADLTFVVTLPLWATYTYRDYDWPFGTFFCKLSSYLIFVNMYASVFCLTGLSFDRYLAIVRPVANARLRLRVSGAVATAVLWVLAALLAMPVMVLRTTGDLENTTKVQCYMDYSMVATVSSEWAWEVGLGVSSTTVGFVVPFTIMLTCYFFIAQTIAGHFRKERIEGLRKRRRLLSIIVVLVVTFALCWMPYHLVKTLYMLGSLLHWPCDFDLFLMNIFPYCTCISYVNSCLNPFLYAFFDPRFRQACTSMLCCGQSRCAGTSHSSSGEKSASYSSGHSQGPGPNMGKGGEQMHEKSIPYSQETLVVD
Method: The mixture was then filtered over a 1.2 um glass fiber type C filterplate (Millipore Corp., Billerica, Mass.), preblocked with 0.5% polyethylenimine. The plate was washed 4 times with 200 ul ice cold binding buffer and then another 4 times with ice cold 50 mM Tris-HCl, pH7.4, dried and counted with scintillation fluid. The data was analyzed with Graphpad Prism 4 (GraphPad Software, Inc, La Jolla, Calif.) using nonlinear regression.

Molecule | binding to APJ receptor (in words) (APJ receptor) | binding result [1]
α-MSH: 13 amino acid α-MSH peptide negative control | no binding | –
SYSMEHFRWGKPV (peptide, UniProt P01189 138-150, looked up, also called negative control) [13 amino acid α-MSH peptide] | – | no binding
